These results are taken from the Human Domainome abundance scans (Beltran et al. 2025).

± gives the uncertainty stated by the source.

To fix the notation:
B1: RAS guanyl-releasing protein 1, residues 539 to 593; numbered along this chain, O95267 (parent)
chain: GFPHNFQETTYLKPTFCDNCAGFLWGVIKQGYRCKDCGMNCHKQCKDLVVFECKK

The variants in this data set derive from B1. As to the kind of experiment: abundance fitness (aPCA) (normalised: wild type 0, dead -1); higher = more abundant; growth selection in yeast, the domain comes from the species named. Conditions: Homo sapiens.
For GFPHNFQETTYLKPTFCDNCAGFLWGVSKQGYRCKDCGMNCHKQCKDLVVFECKK, the abundance fitness was -0.136 ± 0.072.
Turning to GFPHNFQETTYLKPTFCDNCAGFLWGVEKQGYRCKDCGMNCHKQCKDLVVFECKK, the abundance fitness was -0.341 ± 0.062.
On to GFPHNFQETTYLKPTFCDNCAGFLWGVRKQGYRCKDCGMNCHKQCKDLVVFECKK, for which the abundance fitness was -0.084 ± 0.077.
In the case of GFPHNFQETTYLKPTFCDNCAGFLWGVYKQGYRCKDCGMNCHKQCKDLVVFECKK, the abundance fitness is -0.199 ± 0.093.
On to GFPHNFQETTYLKPTFCDNCAGFLWGVKKQGYRCKDCGMNCHKQCKDLVVFECKK, for which the abundance fitness is 0.065 ± 0.11.
Regarding GFPHNFQETTYLKPTFCDNCAGFLWGVLKQGYRCKDCGMNCHKQCKDLVVFECKK, the abundance fitness is -0.27 ± 0.093.
For GFPHNFQETTYLKPTFCDNCAGFLWGVCKQGYRCKDCGMNCHKQCKDLVVFECKK the value was -0.223 ± 0.14; for GFPHNFQETTYLKPTFCDNCAGFLWGVQKQGYRCKDCGMNCHKQCKDLVVFECKK, -0.462 ± 0.17; for GFPHNFQETTYLKPTFCDNCAGFLWGVWKQGYRCKDCGMNCHKQCKDLVVFECKK, -0.111 ± 0.092.
Turning to GFPHNFQETTYLKPTFCDNCAGFLWGVDKQGYRCKDCGMNCHKQCKDLVVFECKK, the abundance fitness is -0.429 ± 0.2.
GFPHNFQETTYLKPTFCDNCAGFLWGVVKQGYRCKDCGMNCHKQCKDLVVFECKK: the abundance fitness was -0.056 ± 0.044.
As for GFPHNFQETTYLKPTFCDNCAGFLWGVTKQGYRCKDCGMNCHKQCKDLVVFECKK, the abundance fitness was -0.116 ± 0.07.
Consider GFPHNFQETTYLKPTFCDNCAGFLWGVHKQGYRCKDCGMNCHKQCKDLVVFECKK, for which the abundance fitness was -0.209 ± 0.13.
Consider GFPHNFQETTYLKPTFCDNCAGFLWGVNKQGYRCKDCGMNCHKQCKDLVVFECKK, for which the abundance fitness is -0.243 ± 0.13.
For GFPHNFQETTYLKPTFCDNCAGFLWGKIKQGYRCKDCGMNCHKQCKDLVVFECKK, the abundance fitness is -0.434 ± 0.091.
On to GFPHNFQETTYLKPTFCDNCAGFLWGLIKQGYRCKDCGMNCHKQCKDLVVFECKK, for which the abundance fitness is -0.063 ± 0.07.
With GFPHNFQETTYLKPTFCDNCAGFLWGRIKQGYRCKDCGMNCHKQCKDLVVFECKK, the abundance fitness was -0.647 ± 0.11.
For GFPHNFQETTYLKPTFCDNCAGFLWGIIKQGYRCKDCGMNCHKQCKDLVVFECKK the value was -0.119 ± 0.1; for GFPHNFQETTYLKPTFCDNCAGFLWGGIKQGYRCKDCGMNCHKQCKDLVVFECKK, -0.19 ± 0.046.
For GFPHNFQETTYLKPTFCDNCAGFLWGPIKQGYRCKDCGMNCHKQCKDLVVFECKK the value was -0.297 ± 0.1.
Turning to GFPHNFQETTYLKPTFCDNCAGFLWGFIKQGYRCKDCGMNCHKQCKDLVVFECKK, the abundance fitness stood at 0.027 ± 0.11.
For GFPHNFQETTYLKPTFCDNCAGFLWGAIKQGYRCKDCGMNCHKQCKDLVVFECKK the value was -0.102 ± 0.12; for GFPHNFQETTYLKPTFCDNCAGFLWGEIKQGYRCKDCGMNCHKQCKDLVVFECKK, -0.17 ± 0.1.
For the variant GFPHNFQETTYLKPTFCDNCAGFLWGWIKQGYRCKDCGMNCHKQCKDLVVFECKK, the abundance fitness is -0.22 ± 0.12.
Consider GFPHNFQETTYLKPTFCDNCAGFLWGYIKQGYRCKDCGMNCHKQCKDLVVFECKK, for which the abundance fitness was -0.018 ± 0.072.
For the variant GFPHNFQETTYLKPTFCDNCAGFLWGHIKQGYRCKDCGMNCHKQCKDLVVFECKK, the abundance fitness was -0.516 ± 0.37.
Turning to GFPHNFQETTYLKPTFCDNCAGFLWGSIKQGYRCKDCGMNCHKQCKDLVVFECKK, the abundance fitness was -0.423 ± 0.078.
Regarding GFPHNFQETTYLKPTFCDNCAGFLWGDIKQGYRCKDCGMNCHKQCKDLVVFECKK, the abundance fitness is -0.657 ± 0.17.
In the case of GFPHNFQETTYLKPTFCDNCAGFLWGCIKQGYRCKDCGMNCHKQCKDLVVFECKK, the abundance fitness is -0.192 ± 0.14.
Take GFPHNFQETTYLKPTFCDNCAGFLWNVIKQGYRCKDCGMNCHKQCKDLVVFECKK: the abundance fitness was -0.562 ± 0.16.
Take GFPHNFQETTYLKPTFCDNCAGFLWHVIKQGYRCKDCGMNCHKQCKDLVVFECKK: the abundance fitness was -0.375 ± 0.092.
For GFPHNFQETTYLKPTFCDNCAGFLWRVIKQGYRCKDCGMNCHKQCKDLVVFECKK the value was -0.616 ± 0.093.
For GFPHNFQETTYLKPTFCDNCAGFLWLVIKQGYRCKDCGMNCHKQCKDLVVFECKK, the abundance fitness is -0.452 ± 0.083.
For the variant GFPHNFQETTYLKPTFCDNCAGFLWQVIKQGYRCKDCGMNCHKQCKDLVVFECKK, the abundance fitness is -0.462 ± 0.1.
In the case of GFPHNFQETTYLKPTFCDNCAGFLWEVIKQGYRCKDCGMNCHKQCKDLVVFECKK, the abundance fitness is -0.517 ± 0.14.
Take GFPHNFQETTYLKPTFCDNCAGFLWTVIKQGYRCKDCGMNCHKQCKDLVVFECKK: the abundance fitness was -0.529 ± 0.14.
As to GFPHNFQETTYLKPTFCDNCAGFLWMVIKQGYRCKDCGMNCHKQCKDLVVFECKK, the abundance fitness is -0.345 ± 0.056.
As for GFPHNFQETTYLKPTFCDNCAGFLWKVIKQGYRCKDCGMNCHKQCKDLVVFECKK, the abundance fitness was -0.442 ± 0.16.
Consider GFPHNFQETTYLKPTFCDNCAGFLWCVIKQGYRCKDCGMNCHKQCKDLVVFECKK, for which the abundance fitness was -0.563 ± 0.059.
As for GFPHNFQETTYLKPTFCDNCAGFLWFVIKQGYRCKDCGMNCHKQCKDLVVFECKK, the abundance fitness is -0.703 ± 0.14.
For GFPHNFQETTYLKPTFCDNCAGFLWIVIKQGYRCKDCGMNCHKQCKDLVVFECKK, the abundance fitness was -0.946 ± 0.27.
For GFPHNFQETTYLKPTFCDNCAGFLWVVIKQGYRCKDCGMNCHKQCKDLVVFECKK the value was -0.736 ± 0.12; for GFPHNFQETTYLKPTFCDNCAGFLWWVIKQGYRCKDCGMNCHKQCKDLVVFECKK, -0.269 ± 0.06.
For GFPHNFQETTYLKPTFCDNCAGFLWDVIKQGYRCKDCGMNCHKQCKDLVVFECKK the value was -0.449 ± 0.084.
For the variant GFPHNFQETTYLKPTFCDNCAGFLWAVIKQGYRCKDCGMNCHKQCKDLVVFECKK, the abundance fitness was -0.225 ± 0.094.
In the case of GFPHNFQETTYLKPTFCDNCAGFLYGVIKQGYRCKDCGMNCHKQCKDLVVFECKK, the abundance fitness is -0.191 ± 0.09.
Regarding GFPHNFQETTYLKPTFCDNCAGFLWGVICQGYRCKDCGMNCHKQCKDLVVFECKK, the abundance fitness is -0.171 ± 0.067.
As for GFPHNFQETTYLKPTFCDNCAGFLWGVIAQGYRCKDCGMNCHKQCKDLVVFECKK, the abundance fitness is -0.124 ± 0.09.
